These are literature values, as cited in patent US11033499B2, “Tablet formulation comprising a GLP-1 peptide and a delivery agent” (priority 2012, dated 2021).

The term Tmax denotes the time from dosing to the highest level.

For the data set the following is noted: published studies with SNAC and human GLP-1.

For “human GLP-1: human GLP-1 given with SNAC in published studies”, the time to peak (Tmax) is 20 to 30 min.
